{"source": "paper PMC2902799", "assay_in_all_cases": "cross-linking", "key": {"[1]": {"target": "CheA G636C (single-cysteine mutant of cysteine-less CheA) (Salmonella typhimurium) (UniProt P09384)"}, "[2]": {"target": "CheA Q10C/M469C (dicysteine mutant of cysteine-less CheA) (Salmonella typhimurium) (UniProt P09384)"}, "[3]": {"target": "CheA Q10C/E460C (dicysteine mutant of cysteine-less CheA) (Salmonella typhimurium) (UniProt P09384)"}, "[4]": {"target": "CheA A37C (single-cysteine mutant of cysteine-less CheA) (Salmonella typhimurium) (UniProt P09384)"}, "[5]": {"target": "CheA Q10C (single-cysteine mutant of cysteine-less CheA) (Salmonella typhimurium) (UniProt P09384)"}, "[6]": {"target": "CheA Q10C/E425C (dicysteine mutant of cysteine-less CheA) (Salmonella typhimurium) (UniProt P09384)"}, "[7]": {"target": "CheA Q10C/Q454C (dicysteine mutant of cysteine-less CheA) (Salmonella typhimurium) (UniProt P09384)"}, "[8]": {"target": "CheA Q10C/S351C (dicysteine mutant of cysteine-less CheA) (Salmonella typhimurium) (UniProt P09384)"}, "[9]": {"target": "CheA M469C (single-cysteine mutant of cysteine-less CheA) (Salmonella typhimurium) (UniProt P09384)"}, "[10]": {"target": "CheA R171C (single-cysteine mutant of cysteine-less CheA) (Salmonella typhimurium) (UniProt P09384)"}, "[11]": {"target": "CheA L627C (single-cysteine mutant of cysteine-less CheA) (Salmonella typhimurium) (UniProt P09384)"}, "[12]": {"target": "CheA R607C (single-cysteine mutant of cysteine-less CheA) (Salmonella typhimurium) (UniProt P09384)"}, "[13]": {"target": "CheA E311C (single-cysteine mutant of cysteine-less CheA) (Salmonella typhimurium) (UniProt P09384)"}, "[14]": {"target": "CheA Q10C/E311C (dicysteine mutant of cysteine-less CheA) (Salmonella typhimurium) (UniProt P09384)"}, "[15]": {"target": "CheA Q10C/S514C (dicysteine mutant of cysteine-less CheA) (Salmonella typhimurium) (UniProt P09384)"}, "[16]": {"target": "CheA Q10C/D359C (dicysteine mutant of cysteine-less CheA) (Salmonella typhimurium) (UniProt P09384)"}, "[17]": {"target": "CheA E109C (single-cysteine mutant of cysteine-less CheA) (Salmonella typhimurium) (UniProt P09384)"}, "[18]": {"target": "CheA Q125C (single-cysteine mutant of cysteine-less CheA) (Salmonella typhimurium) (UniProt P09384)"}, "[19]": {"target": "CheA S514C (single-cysteine mutant of cysteine-less CheA) (Salmonella typhimurium) (UniProt P09384)"}, "[20]": {"target": "CheA Q596C (single-cysteine mutant of cysteine-less CheA) (Salmonella typhimurium) (UniProt P09384)"}, "[21]": {"target": "CheA Q10C/E369C (dicysteine mutant of cysteine-less CheA) (Salmonella typhimurium) (UniProt P09384)"}, "[22]": {"target": "CheA A114C (single-cysteine mutant of cysteine-less CheA) (Salmonella typhimurium) (UniProt P09384)"}}, "data": [{"substance": "CheA G636C (single-cysteine mutant of cysteine-less CheA) (from UniProt P09384 1-671) (enzyme)", "values": [{"measurement": "fraction (%) intradimer", "setting": "[1]", "result": 83, "unit": "%"}]}, {"substance": "CheA Q10C/M469C (dicysteine mutant of cysteine-less CheA) (from UniProt P09384 1-671) (enzyme)", "values": [{"measurement": "fraction (%) intradimer", "setting": "[2]", "result": 100, "unit": "%"}]}, {"substance": "CheA Q10C/E460C (dicysteine mutant of cysteine-less CheA) (from UniProt P09384 1-671) (enzyme)", "values": [{"measurement": "fraction (%) intradimer", "setting": "[3]", "result": 91, "unit": "%"}]}, {"substance": "CheA A37C (single-cysteine mutant of cysteine-less CheA) (from UniProt P09384 1-671) (enzyme)", "values": [{"measurement": "fraction (%) intradimer", "setting": "[4]", "result": 46, "unit": "%"}]}, {"substance": "CheA Q10C (single-cysteine mutant of cysteine-less CheA) (from UniProt P09384 1-671) (enzyme)", "values": [{"measurement": "fraction (%) intradimer", "setting": "[5]", "result": 100, "unit": "%"}]}, {"substance": "CheA Q10C/E425C (dicysteine mutant of cysteine-less CheA) (from UniProt P09384 1-671) (enzyme)", "values": [{"measurement": "fraction (%) intradimer", "setting": "[6]", "result": 100, "unit": "%"}]}, {"substance": "CheA Q10C/Q454C (dicysteine mutant of cysteine-less CheA) (from UniProt P09384 1-671) (enzyme)", "values": [{"measurement": "fraction (%) intradimer", "setting": "[7]", "result": 100, "unit": "%"}]}, {"substance": "CheA Q10C/S351C (dicysteine mutant of cysteine-less CheA) (from UniProt P09384 1-671) (enzyme)", "values": [{"measurement": "fraction (%) intradimer", "setting": "[8]", "result": 100, "unit": "%"}]}, {"substance": "CheA M469C (single-cysteine mutant of cysteine-less CheA) (from UniProt P09384 1-671) (enzyme)", "values": [{"measurement": "fraction (%) intradimer", "setting": "[9]", "result": 72, "unit": "%"}]}, {"substance": "CheA R171C (single-cysteine mutant of cysteine-less CheA) (from UniProt P09384 1-671) (enzyme)", "values": [{"measurement": "fraction (%) intradimer", "setting": "[10]", "result": 100, "unit": "%"}]}, {"substance": "CheA L627C (single-cysteine mutant of cysteine-less CheA) (from UniProt P09384 1-671) (enzyme)", "values": [{"measurement": "fraction (%) intradimer", "setting": "[11]", "result": 100, "unit": "%"}]}, {"substance": "CheA R607C (single-cysteine mutant of cysteine-less CheA) (from UniProt P09384 1-671) (enzyme)", "values": [{"measurement": "fraction (%) intradimer", "setting": "[12]", "result": 100, "unit": "%"}]}, {"substance": "CheA E311C (single-cysteine mutant of cysteine-less CheA) (from UniProt P09384 1-671) (enzyme)", "values": [{"measurement": "fraction (%) intradimer", "setting": "[13]", "result": 93, "unit": "%"}]}, {"substance": "CheA Q10C/E311C (dicysteine mutant of cysteine-less CheA) (from UniProt P09384 1-671) (enzyme)", "values": [{"measurement": "fraction (%) intradimer", "setting": "[14]", "result": 87, "unit": "%"}]}, {"substance": "CheA Q10C/S514C (dicysteine mutant of cysteine-less CheA) (from UniProt P09384 1-671) (enzyme)", "values": [{"measurement": "fraction (%) intradimer", "setting": "[15]", "result": 49, "unit": "%"}]}, {"substance": "CheA Q10C/D359C (dicysteine mutant of cysteine-less CheA) (from UniProt P09384 1-671) (enzyme)", "values": [{"measurement": "fraction (%) intradimer", "setting": "[16]", "result": 86, "unit": "%"}]}, {"substance": "CheA E109C (single-cysteine mutant of cysteine-less CheA) (from UniProt P09384 1-671) (enzyme)", "values": [{"measurement": "fraction (%) intradimer", "setting": "[17]", "result": 82, "unit": "%"}]}, {"substance": "CheA Q125C (single-cysteine mutant of cysteine-less CheA) (from UniProt P09384 1-671) (enzyme)", "values": [{"measurement": "fraction (%) intradimer", "setting": "[18]", "result": 81, "unit": "%"}]}, {"substance": "CheA S514C (single-cysteine mutant of cysteine-less CheA) (from UniProt P09384 1-671) (enzyme)", "values": [{"measurement": "fraction (%) intradimer", "setting": "[19]", "result": 50, "unit": "%"}]}, {"substance": "CheA Q596C (single-cysteine mutant of cysteine-less CheA) (from UniProt P09384 1-671) (enzyme)", "values": [{"measurement": "fraction (%) intradimer", "setting": "[20]", "result": 100, "unit": "%"}]}, {"substance": "CheA Q10C/E369C (dicysteine mutant of cysteine-less CheA) (from UniProt P09384 1-671) (enzyme)", "values": [{"measurement": "fraction (%) intradimer", "setting": "[21]", "result": 81, "unit": "%"}]}, {"substance": "CheA A114C (single-cysteine mutant of cysteine-less CheA) (from UniProt P09384 1-671) (enzyme)", "values": [{"measurement": "fraction (%) intradimer", "setting": "[22]", "result": 84, "unit": "%"}]}]}
